Target: human CNTN4 expressed on the cell surface (human) (UniProt Q8IWV2)
Experiment: flow cytometry; IgG on human CNTN4-overexpressing HEK293 cells

Sequence of human CNTN4 expressed on the cell surface (human) (Q8IWV2 19-1000): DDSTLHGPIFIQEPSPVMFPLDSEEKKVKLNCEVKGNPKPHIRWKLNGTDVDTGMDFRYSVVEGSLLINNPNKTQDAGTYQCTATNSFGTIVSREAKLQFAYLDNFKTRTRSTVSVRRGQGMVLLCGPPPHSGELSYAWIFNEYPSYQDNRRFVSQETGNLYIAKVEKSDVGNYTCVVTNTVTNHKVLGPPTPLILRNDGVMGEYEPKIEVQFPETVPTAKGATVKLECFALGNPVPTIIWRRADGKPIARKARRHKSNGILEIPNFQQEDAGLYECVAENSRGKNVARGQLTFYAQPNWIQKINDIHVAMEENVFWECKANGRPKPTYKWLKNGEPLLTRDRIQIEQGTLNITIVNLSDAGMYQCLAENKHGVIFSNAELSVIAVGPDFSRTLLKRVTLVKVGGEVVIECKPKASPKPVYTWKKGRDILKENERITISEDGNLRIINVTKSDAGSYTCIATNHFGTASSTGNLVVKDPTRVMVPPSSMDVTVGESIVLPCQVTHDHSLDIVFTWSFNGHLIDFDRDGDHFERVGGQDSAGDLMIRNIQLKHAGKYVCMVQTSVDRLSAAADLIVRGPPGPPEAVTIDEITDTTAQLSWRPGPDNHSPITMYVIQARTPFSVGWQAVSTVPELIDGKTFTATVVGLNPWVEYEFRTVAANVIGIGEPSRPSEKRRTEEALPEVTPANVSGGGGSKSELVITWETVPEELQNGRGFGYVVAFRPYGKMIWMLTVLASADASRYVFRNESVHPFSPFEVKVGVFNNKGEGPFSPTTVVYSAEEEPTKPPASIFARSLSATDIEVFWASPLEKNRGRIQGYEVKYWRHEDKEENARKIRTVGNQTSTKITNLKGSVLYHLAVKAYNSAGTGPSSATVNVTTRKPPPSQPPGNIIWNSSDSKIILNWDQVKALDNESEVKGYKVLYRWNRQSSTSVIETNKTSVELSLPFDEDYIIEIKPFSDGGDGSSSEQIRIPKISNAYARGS

Top MFI: 13 MFI
Substance: human IgG4 antibody (negative control)

Reference: patent EP4667491A1
